Reference: the supplement of paper PMC10567573

B1: PLK2 (parent)
chain: MELLRTITYQPAASTKMCEQALGK
B2: DLC1 (parent)
chain: KRSWEEHVTHWMGQPFNSDDRNTA

Variants of: B1
Experiment: protein stability index of a GFP-peptide fusion (GPS, HEK-293T) (PSI 1-6); higher = more stable
Conditions: c terminus: a fixed tail appended
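Also: lentivirally expressed fusions sorted by FACS into six bins by GFP to DsRed ratio, PSI derived from sequencing read proportions per bin multiplied by bin number.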

Protein stability index of substitutions, site by site:
A21: H 1.94, R 2.69, G 2.42, S 2, N 2.22, Q 2.98, C 2.68
E2: D 2.75, F 1.69, L 2.15, P 2.73, H 2.05, C 1.93
P11: A 2.12, N 1.82, K 1.93, F 2.52, I 2.82, Q 2.65, R 2.16, D 1.6, T 2.72, H 2.39, S 3.09, V 3.59
L4: N 4.01, E 3.69, Y 1.98, R 3.26, H 2.6, T 3.67, Q 2.58, C 2.02, D 4.39, P 4.25, S 3.91
Q10: P 2.83, L 2.49, A 2.79, K 2.78, I 2.81, H 1.81
Y9: V 2.11, Q 2.01, N 2.16, T 2.29, A 2.52, F 2.05
E19: K 2.63, F 2.15, N 2.28, Q 1.52, I 2.42, R 2.59, C 2.09, D 2.27
K16: M 1.85, A 2.13, R 2.07, E 2.18, L 1.84, Q 2.22, V 1.96, C 2.95
T8: M 1.96, L 2.91, V 2.49, N 2.68, P 1.97, D 2.01, E 1.78, Q 1.94
Q20: P 2.62, A 2.63, E 1.78, H 2.51, G 2.7, K 2.22
A12: V 2.4, R 2.34, M 1.47, K 2.03, H 2.41, T 2.81, P 2.18, N 2.8, Q 2.03
T15: Y 2.83, L 2.23, F 1.79, W 3.77, S 2.41, G 2.53
S14: M 2.33, Q 2.5, R 2.05, V 2.44, A 3.14, P 1.5, H 3.11
I7: K 3.24, M 2.85, Q 2.79, A 2.34, T 1.97, W 2.27, F 1.94
A13: E 2.09, I 1.82, W 1.82, P 1.74, K 2.61, V 1.96, N 2.54, G 2.97, T 1.15
L22: G 3.33, P 1.79, Y 2.79, A 2.29, R 1.89, E 2.21, F 2.92, T 2.43, D 1.87, C 2.54
R5: P 3.83, F 2.18, A 1.92, C 1.47, S 2.71, Y 1.4, I 3.09, D 3.95
C18: K 1.61, G 3, Q 1.57, W 2.17, T 2.67, D 1.94, N 1.95
K24: Q 1.89, V 2.86, S 2.47, P 2.65, C 2.46, T 2.21, W 3.92, H 3.08, E 1.41, G 1.65, M 3.29, I 3.23
L3: Y 2.07, E 2.56, K 1.37, R 2.24, H 1.62, F 2.56
M1: L 2.37, W 2.16, Q 3.84, R 3.04, Y 2.54, C 1.51, G 3.84
M17: L 2.84, N 2.19, G 1.53, V 2.98, C 2.07
G23: Y 1.9, N 2.37, C 2.96, V 1.97, T 1.46, R 1.34, W 3.02, S 3.38, L 3.53, H 2.88, A 2.64
T6: C 1.92, Y 1.6, R 2.04, S 1.64, D 3.2, V 2.55

Variants of: B2
Experiment: as above
Conditions: c terminus: a fixed tail appended

Protein stability index: each site, then its substitutions
D20: V 2.02, H 2.48, F 2.29, L 2.48, Q 3.05, P 2.76, Y 1.77, N 2.59, T 2.75, R 2.66
Q14: C 3.01, S 2.37, K 2.82, L 2.64, F 2.65, R 3.47
T9: N 3.75, W 2.67, Y 3.04
E6: I 2.44, D 3.06, N 3.98, R 3.46, Y 2.31, W 2.67
H10: Y 1.92, T 2.32, F 1.92, V 2.16, G 2.57, K 2.53
R2: N 3.67, F 3.62, G 3.61, M 2.79, K 2.6, H 3.08
N22: D 2.59, M 2.28, S 2.74, K 3.02, A 1.81, R 2.53, Y 2.09, T 2.29
P15: F 2.78, E 3.45, L 3.4, D 1.63, W 2.92, G 2.43, H 2.66, R 2.41, C 2.35, S 2.3
R21: Q 3.07, F 1.95, P 2.6, Y 2.55, A 2.64, H 2.47
D19: Y 1.43, M 2.88, I 3.12, G 2.25, N 2.69
V8: S 3.88, M 3.66, R 4.22, G 4.02, L 3.31, P 4.21, C 3.98
T23: K 2.74, W 1.79, C 3.51, R 2.65, Y 2.16, V 2.13, L 2.08, P 2.46, Q 3.27
E5: R 2.64, P 3.95, G 3.07, M 3.13, V 2.65, D 3.94, K 2.58, Q 3.1
H7: E 3.1, Q 2.75, T 3.21
N17: L 2.44, R 1.64, C 2.23, M 2.15
K1: A 3.57, C 2.54, R 2.99, P 3.6
W11: A 2.97, E 1.57, Q 2.12, V 3.19, S 2.53, C 2.48, R 3.29
M12: R 2.49, E 2.32, F 2.94, N 2.79, Y 3.21, I 2.53, D 2.7, P 3.67
W4: T 4.76, A 4.41, P 4.45
S18: H 2.66, Y 2.26, V 2.31, K 3.12, L 2.03
A24: T 2.43, S 2.67, Y 1.72, M 2.09, N 2.23, R 2.86
G13: N 2.14, A 2.53, R 2.23, S 2.63
F16: E 3.08, Q 2.41, D 2.59, M 2.94, N 3.62
S3: T 2.13, F 3.18, Q 3.54, E 4.41, A 3.44, Y 3.01, K 3.47
